Assay [1] has as its target EPEA-tagged GFP (GFP-EPEA) protein. As to the kind of experiment: BLI; analyte not stated. For orientation: In BLI a coated tip is dipped into the sample, and binding shifts an interference pattern.
Assay [2] deals with T1, native human coagulation factor IX (human, UniProt P00740 47-461).
T1 construct: Native protein captured from plasma; also called FIX
As to the kind of experiment: NANEX column: 30 mL human recovered plasma recirculated over immobilised MegaBody CA16388; A280, SDS-PAGE and western blot [D00048 FIG. 43B; D00048 FIG. 43C]. In general terms: Immunoblotting shows a protein as a band on a membrane.
Method: The purification process was monitored by measuring the absorbance at 280 nm (Protein absorption) (FIGS. 43A-43C). The elution peak was collected in 750 μl fractions and analysed in SDS/PAGE gel and western blot including commercial human coagulation factor IX as a control (FIGS. 43A-43C).

For assay [3], the target named is T1, native human coagulation factor IX. Put plainly: NANEX column: 30 mL human plasma recirculated over immobilised CA11143; A280, SDS-PAGE and western blot [D00046 FIG. 42B; D00047 FIG. 42C].
Method: (§1) 30 mL of human recovered plasma treated with ACD anticoagulant was loaded on this NANEX column by recirculation for 120 minutes. […] FIG. 42B) SDS-PAGE of representative fractions of the purification and FIG. 42C) the western blot of these fractions. MW, molecular weight marker (PageRuler™ Prestained Protein Ladder); and asterisk (*), commercial native human coagulation factor IX (used as control).
(§2) The purification process was monitored by measuring the absorbance at 280 nm (Protein absorption) (FIGS. 42A-42C). The elution peak was collected in 750 μl fractions and the fractions were analyzed in SDS/PAGE gel and by western blot including a commercial human coagulation factor IX as a positive control (FIGS. 42A-42C). Regeneration of the column was obtained by 5 CV of 200 mM Glycine buffer pH 2.3.
Assay [4] concerns the target mCherry. As to the kind of experiment: BLI.
Method: (§3) Streptavidin-coated Octet® biosensors were used to capture biotinylated Nanobodies (1 μg/mL). […] All assays were performed in Hepes 25 mM pH7.5, NaCl 150 mM supplemented with BSA 0.1% and Tween²⁰ 0.005% at room temperature.
Assay [5] concerns the target mCherry. Put plainly: BLI (OctetRed), biotinylated Nb on streptavidin sensor, mCherry 8.23-222 nM.
Method: as §3
Assay [6] has as its target T2, FmIH_lectin_mCherry_his (CA17337).
T2 construct: also called mCherry-fusion protein
Put plainly: NANEX column: lysate with FmlH_lectin_mCherry_his on immobilised CA17341; A280/A585 and SDS-PAGE [D00045 FIG. 41B].

The target of assay [7] is T3, GFP protein (Aequorea victoria (Water jellyfish) …, UniProt P42212 1-238 = GFP).
T3 construct: Purified GFP used as BLI analyte, in crystals and in NANEX; also called Green fluorescent protein
Put plainly: BLI.
Method: (§4) Streptavidin-coated Octet® biosensors were used to capture biotinylated Nanobodies (1 μg/mL). Binding and dissociation isotherms at several GFP concentrations (1 nM to 5 μM range) were analyzed on an OctetRed (molecular devices). All assays were performed in Hepes 25 mM pH7.5, NaCl 150 mM supplemented with BSA 0.1% and Tween²⁰ 0.005% at room temperature.

Assay [8] has as its target T3, GFP protein. Put plainly: BLI (OctetRed), biotinylated Nb on streptavidin sensor, GFP as analyte.
Method: as §4
For assay [9], the target named is T4, CA16976 eGFP-tagged human recombinant androgen receptor (eGFP-6His-TEV-ARb) (human).
T4 construct: Expressed in HEK293T cells, captured from the lysate; also called GFP-ARb; eGFP-ARb
As to the kind of experiment: NANEX column: HEK293T lysate with GFP-ARb on immobilised CA15816; A280/A488.
Method: 10 mL of lysate was injected on this NANEX column. […] FIG. 45A) The elution of GFP-GR by this stripper was monitored by following the absorbance at 280 nm and 488 nm. […] The right peak eluted upon regeneration with 200 mM glycine at pH 2.3. FIG. 45B) SDS-PAGE of the different purification fractions, molecular weight marker (PageRuler™ Prestained Protein Ladder).
Recombinant human eGFP-6His-TEV-AR was expressed using a pcDNA3.1+N-eGFP vector transfected into human HEK239T cells. Cells were transfected in 150×21 mm dishes (Nunclon™ Delta) using X-tremeGENE™ 9 DNA Transfection Reagent (XTG9-RO Roche) with a ratio 3:1 μL/μg DNA. After transfection, HEK239T cells were grown for 48 h at 37° C. and 5% CO₂. Cells from 3 plates were collected by pipetting and centrifugation, washed with PBS and resuspended in 10 mL lysis buffer 10 mM Hepes 7.5, 2.5 mM DTT, 1 mM EDTA, 20 mM Na₂MoO₄, 10% Glycerol (supplemented with protease inhibitors) before lysis using a Dounce homogenizer. […] Next, the column was washed with 10 CVs of washing buffer (10 mM Hepes 7.5, 2.5 mM DTT, 1 mM EDTA, 20 mM Na₂MoO₄, 10% Glycerol) using a syringe.

The target in assay [10] is T5, CA16607 eGFP-tagged human recombinant glucocorticoid receptor (eGFP-6His-TEV-GR) (human).
T5 construct: Expressed in HEK293T cells, captured from the lysate; also called GFP-GR; eGFP-GR
Put plainly: NANEX column: HEK293T lysate with GFP-GR on immobilised CA15816; A280/A488, SDS-PAGE, western blot [D00049 FIG. 44B].

Assay [11] addresses T1, native human coagulation factor IX. As to the kind of experiment: displacement of native factor IX from immobilised CA11143 (NANEX column) by 1 mg MegaBody CA16383; A280, SDS-PAGE and western blot [D00046 FIG. 42B; D00047 FIG. 42C].
Method: as §1, §2

T1 sequence (P00740 47-461 limits assumed): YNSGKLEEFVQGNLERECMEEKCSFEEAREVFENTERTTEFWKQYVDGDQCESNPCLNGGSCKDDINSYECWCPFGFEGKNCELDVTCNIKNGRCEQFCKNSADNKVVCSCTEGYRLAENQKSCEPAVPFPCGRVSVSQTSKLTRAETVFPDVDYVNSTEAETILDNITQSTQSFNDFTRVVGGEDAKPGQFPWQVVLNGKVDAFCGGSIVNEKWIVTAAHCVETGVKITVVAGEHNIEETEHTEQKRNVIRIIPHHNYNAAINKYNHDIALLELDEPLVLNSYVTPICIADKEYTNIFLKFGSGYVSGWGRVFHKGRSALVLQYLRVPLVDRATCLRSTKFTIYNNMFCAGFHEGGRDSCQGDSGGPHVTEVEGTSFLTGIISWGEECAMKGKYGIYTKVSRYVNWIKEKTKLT
T5 sequence (chain, as listed by the source limits assumed): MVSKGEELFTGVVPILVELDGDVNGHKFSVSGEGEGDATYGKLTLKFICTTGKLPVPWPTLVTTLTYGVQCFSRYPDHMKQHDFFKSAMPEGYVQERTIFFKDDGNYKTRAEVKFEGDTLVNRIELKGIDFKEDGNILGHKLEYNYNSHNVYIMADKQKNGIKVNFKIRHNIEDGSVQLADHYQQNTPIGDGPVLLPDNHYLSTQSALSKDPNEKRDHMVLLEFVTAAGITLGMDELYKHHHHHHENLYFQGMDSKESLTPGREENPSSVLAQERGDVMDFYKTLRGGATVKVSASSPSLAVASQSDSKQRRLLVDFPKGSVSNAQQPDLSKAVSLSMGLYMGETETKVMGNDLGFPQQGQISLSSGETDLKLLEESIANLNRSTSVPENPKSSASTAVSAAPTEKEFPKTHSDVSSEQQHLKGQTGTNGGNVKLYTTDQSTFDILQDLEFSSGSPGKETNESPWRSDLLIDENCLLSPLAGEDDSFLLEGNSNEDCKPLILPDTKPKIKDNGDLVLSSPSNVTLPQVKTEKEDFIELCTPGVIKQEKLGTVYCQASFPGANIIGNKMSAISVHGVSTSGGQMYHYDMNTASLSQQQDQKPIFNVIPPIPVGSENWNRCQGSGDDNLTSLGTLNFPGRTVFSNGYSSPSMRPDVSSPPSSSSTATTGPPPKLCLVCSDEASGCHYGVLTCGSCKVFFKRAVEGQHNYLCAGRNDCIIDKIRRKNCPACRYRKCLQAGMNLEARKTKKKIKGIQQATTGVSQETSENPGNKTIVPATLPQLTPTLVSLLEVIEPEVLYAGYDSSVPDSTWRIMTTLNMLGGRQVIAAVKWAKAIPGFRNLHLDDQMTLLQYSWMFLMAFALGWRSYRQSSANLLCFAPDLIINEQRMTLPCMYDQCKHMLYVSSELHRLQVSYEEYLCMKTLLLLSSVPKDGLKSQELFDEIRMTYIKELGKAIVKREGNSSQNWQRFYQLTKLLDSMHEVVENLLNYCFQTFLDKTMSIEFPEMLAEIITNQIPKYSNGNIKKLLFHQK
T4 sequence (chain, as listed by the source limits assumed): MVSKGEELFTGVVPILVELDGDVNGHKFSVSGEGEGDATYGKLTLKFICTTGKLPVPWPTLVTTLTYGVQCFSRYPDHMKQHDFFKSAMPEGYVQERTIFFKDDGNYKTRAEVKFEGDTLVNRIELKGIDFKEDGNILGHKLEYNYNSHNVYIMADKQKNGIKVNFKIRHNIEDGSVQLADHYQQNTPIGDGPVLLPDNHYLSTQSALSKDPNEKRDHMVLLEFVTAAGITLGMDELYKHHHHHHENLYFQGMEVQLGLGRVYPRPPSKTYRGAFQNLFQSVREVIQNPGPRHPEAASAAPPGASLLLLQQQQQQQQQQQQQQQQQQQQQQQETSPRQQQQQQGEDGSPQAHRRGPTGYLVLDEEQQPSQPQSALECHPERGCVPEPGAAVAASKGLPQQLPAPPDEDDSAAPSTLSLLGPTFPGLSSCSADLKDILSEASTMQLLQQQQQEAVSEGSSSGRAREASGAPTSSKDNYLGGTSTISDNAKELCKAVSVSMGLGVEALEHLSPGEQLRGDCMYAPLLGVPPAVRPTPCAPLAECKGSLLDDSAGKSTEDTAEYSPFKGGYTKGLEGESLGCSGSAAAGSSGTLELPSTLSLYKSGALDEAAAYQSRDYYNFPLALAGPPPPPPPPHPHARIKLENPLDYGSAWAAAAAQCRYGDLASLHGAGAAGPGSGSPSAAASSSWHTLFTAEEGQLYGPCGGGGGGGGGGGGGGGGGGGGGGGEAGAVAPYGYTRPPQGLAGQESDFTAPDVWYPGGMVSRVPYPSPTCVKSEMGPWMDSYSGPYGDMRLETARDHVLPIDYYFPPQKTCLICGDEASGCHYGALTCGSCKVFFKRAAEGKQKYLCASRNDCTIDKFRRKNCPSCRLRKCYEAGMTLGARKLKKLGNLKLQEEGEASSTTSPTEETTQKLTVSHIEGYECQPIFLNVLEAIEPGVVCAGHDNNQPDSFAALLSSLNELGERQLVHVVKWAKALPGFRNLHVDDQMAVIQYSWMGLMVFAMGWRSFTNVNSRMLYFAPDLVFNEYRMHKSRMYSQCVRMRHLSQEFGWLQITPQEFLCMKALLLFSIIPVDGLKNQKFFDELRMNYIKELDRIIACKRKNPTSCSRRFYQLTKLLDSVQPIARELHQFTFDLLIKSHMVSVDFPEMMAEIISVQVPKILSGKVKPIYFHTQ

B1: CA4375, EPEA-NbSyn2 (C-term. 6xHis) (VHH)
VHH: QVQLQESGGGSVQAGGSLRLSCAASGIDSSSYCMGWFRQRPGKEREGVARINGLGGVKTAYADSVKDRFTISRDNAENTVYLQMNSLKPEDTAIYYCAAKFSPGYCGGSWSNFGYWGQGTQVTVSS
notes: Selected against human alpha-synuclein; also called monovalent CA4375; EPEA-specific Nanobody
Turning to B1, the Kd in [1] worked out at 60 nM.

B2: CA16388 FIX functionalized Nanobody trapper (MegaBody MbCA11143^YgjK, including C-terminal 6xHis+EPEA tag) (other)
chain: QVQLVESGGGLVKEETQSGLNNYARVVEKGQYDSLEIPAQVAASWESGRDDAAVFGFIDKEQLDKYVANGGKRSDWTVKFAENRSQDGTLLGYSLLQESVDQASYMYSDNHYLAEMATILGKPEEAKRYRQLAQQLADYINTCMFDPTTQFYYDVRIEDKPLANGCAGKPIVERGKGPEGWSPLFNGAATQANADAVVKVMLDPKEFNTFVPLGTAALTNPAFGADIYWRGRVWVDQFWFGLKGMERYGYRDDALKLADTFFRHAKGLTADGPIQENYNPLTGAQQGAPNFSWSAAHLYMLYNDFFRKQASGGGSGGGGSGGGGSGNADNYKNVINRTGAPQYMKDYDYDDHQRFNPFFDLGAWHGHLLPDGPNTMGGFPGVALLTEEYINFMASNFDRLTVWQDGKKVDFTLEAYSIPGALVQKLTAKDVQVEMTLRFATPRTSLLETKITSNKPLDLVWDGELLEKLEAKEGKPLSDKTIAGEYPDYQRKISATRDGLKVTFGKVRATWDLLTSGESEYQVHKSLPVQTEINGNRFTSKAHINGSTTLYTTYSHLLTAQEVSKEQMQIRDILARPAFYLTASQQRWEEYLKKGLTNPDATPEQTRVAVKAIETLNGNWRSPGGAVKFNTVTPSVTGRWFSGNQTWPWDTWKQAFAMAHFNPDIAKENIRAVFSWQIQPGDSVRPQDVGFVPDLIAWNLSPERGGDGGNWNERNTKPSLAAWSVMEVYNVTQDKTWVAEMYPKLVAYHDWWLRNRDHNGNGVPEYGATRDKAHNTESGEMLFTVKKSLRLSCAASGFTFDNYAMNWVRQAPGKGLEWVSGINWNGRNTYYAESVKDRFTISRDNAKNTLYLQMNSLKSEDTAVYYCAKEIITSGGPTGKYDYWGQGTQVTVSSHHHHHHEPEA
notes: also called MegaBody CA16388
Regarding B2, in assay [2], the binding result was “binds”.

B3: CA11143 FIX Nanobody trapper (including C-terminal 6xHis+EPEA tag) (VHH)
VHH: QVQLVESGGALVQPGGSLRLSCAASGFTFDNYAMNWVRQAPGKGLEWVSGINWNGRNTYYAESVKDRFTISRDNAKNTLYLQMNSLKSEDTAVYYCAKEIITSGGPTGKYDYWGQGTQVTVSS
notes: also called Nb CA11143
Consider B3, for which the binding result in assay [3] is “binds”.

B4: CA17341 mCherry Nanobody trapper (CA17302 mutant) (including C-terminal 6xHis+EPEA tag) (VHH)
VHH: QVQLVESGGGLVQAGGSLRLSCVASGLPFSRYNMAWFRQAPGKEREFVADIDWSGDSTYDLDSVKGRFTISRDNAKNTVYLQMSSLLPEDTAVYYCAAHFKFALAQRIKWGDMDYWGKGTQVTVSS
modifications: biotinylated for BLI
notes: also called Nb CA17341
Take B4: in assay [4], the “Half time ratio (relative to wt CA17302)” value was found to be 2.26 fold and the “KD ratio (relative to wt CA17302)” value was 2.4 fold. In assay [5], this molecule gave a Kd of 4.05 nM, a dissociation rate constant (koff) of 0.00231 s⁻¹ and a kon of 601000 M⁻¹ s⁻¹. Besides, the binding result in [6] was “binds”.

B5: CA15816 GFP-NbT54A/V55A (C-term. 6xHis + EPEA) (VHH)
VHH: QVQLVESGGGLVQAGGSLRLSCAASGRTFSTAAMGWFRQAPGKERDFVAGIYWAAGSTYYADSAKGRFTISRDNAKNTVYLQMDSLKPEDTAVYYCAARRRGFTLAPTRANEYDYWGQGTQVTVSS
modifications: biotinylated for BLI
notes: T54A/V55A mutant of CA12760; also called Nb CA15816
As for B5, in assay [7], the “Half-time ratio (relative to the wt Nb CA12760)” value is 70 fold and the “KD ratio (relative to the wt Nb CA12760)” value is 50 fold. In assay [8], this molecule yielded a Kd of 2.7 nM, a koff of 0.00225 s⁻¹ and a kon of 835000 M⁻¹ s⁻¹. Moreover, in assay [9], the binding result is “binds”. Further, the binding result in assay [10] is on record as “binds”.

B6: CA16383 FIX functionalized Nanobody stripper (MegaBody MbCA10309^YgjK, including C-terminal 6xHis+EPEA tag) (other)
chain: QVQLVESGGGLVKEETQSGLNNYARVVEKGQYDSLEIPAQVAASWESGRDDAAVFGFIDKEQLDKYVANGGKRSDWTVKFAENRSQDGTLLGYSLLQESVDQASYMYSDNHYLAEMATILGKPEEAKRYRQLAQQLADYINTCMFDPTTQFYYDVRIEDKPLANGCAGKPIVERGKGPEGWSPLFNGAATQANADAVVKVMLDPKEFNTFVPLGTAALTNPAFGADIYWRGRVWVDQFWFGLKGMERYGYRDDALKLADTFFRHAKGLTADGPIQENYNPLTGAQQGAPNFSWSAAHLYMLYNDFFRKQASGGGSGGGGSGGGGSGNADNYKNVINRTGAPQYMKDYDYDDHQRFNPFFDLGAWHGHLLPDGPNTMGGFPGVALLTEEYINFMASNFDRLTVWQDGKKVDFTLEAYSIPGALVQKLTAKDVQVEMTLRFATPRTSLLETKITSNKPLDLVWDGELLEKLEAKEGKPLSDKTIAGEYPDYQRKISATRDGLKVTFGKVRATWDLLTSGESEYQVHKSLPVQTEINGNRFTSKAHINGSTTLYTTYSHLLTAQEVSKEQMQIRDILARPAFYLTASQQRWEEYLKKGLTNPDATPEQTRVAVKAIETLNGNWRSPGGAVKFNTVTPSVTGRWFSGNQTWPWDTWKQAFAMAHFNPDIAKENIRAVFSWQIQPGDSVRPQDVGFVPDLIAWNLSPERGGDGGNWNERNTKPSLAAWSVMEVYNVTQDKTWVAEMYPKLVAYHDWWLRNRDHNGNGVPEYGATRDKAHNTESGEMLFTVKKSLRLSCATSGIGFSIYSMGWYRQAPGKERELVASIAGNEDKDYVESVKGRFTISRDYAKNTLYLEMSGLKFEDTAMYYCAAGLRRGVSLTPYYWGQGTQVTVSSHHHHHHEPEA
notes: also called MegaBody CA16383
As for B6, in assay [11], the binding result is “binds”.

A word on the Kd: it is the equilibrium constant for the complex coming apart. By koff is commonly meant the rate constant with which the complex falls apart. What is called kon is the rate constant with which the complex forms. A lower kon goes with slower complex formation.
